The sequences below were run on Escherichia coli TOP10 (assay: shrunken log2 fold change of peptide-encoding DNA abundance (4.5 h post-induction vs induction); higher = less antimicrobial activity (less host growth inhibition)). Settings: time post-induction: 4.5 h; library: site-saturation at positions 5, 18, 19, 20.
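Also: peptides expressed intracellularly from a pBAD plasmid library in pooled LB shake-flask culture, induced with 0.3% L-arabinose, DNA abundance read by NGS, three biological replicates, DESeq2 with apeglm shrinkage.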

Row | Sequence | shrunken log2 fold change
1 | RRIRFRPPRLPRPRPRPNEEPRP | -0.0458
2 | RRIRSRPPRLPRPRPRPCSRPRP | -0.179
3 | RRIRNRPPRLPRPRPRPQFQPRP | 0.0437
4 | RRIRFRPPRLPRPRPRPTCEPRP | 0.0933
5 | RRIRWRPPRLPRPRPRPAWKPRP | 0.143
6 | RRIRYRPPRLPRPRPRPQEHPRP | -0.65
7 | RRIRWRPPRLPRPRPRPMVKPRP | 0.17
8 | RRIRTRPPRLPRPRPRPIYTPRP | -0.46
9 | RRIRARPPRLPRPRPRPTKPPRP | 0.24
10 | RRIRGRPPRLPRPRPRPAIMPRP | 1
11 | RRIRWRPPRLPRPRPRPNMKPRP | -0.0784
12 | RRIRQRPPRLPRPRPRPIMMPRP | -0.0173
13 | RRIRKRPPRLPRPRPRPAEVPRP | 0.171
14 | RRIRGRPPRLPRPRPRPMQLPRP | 0.539
15 | RRIRKRPPRLPRPRPRPWLGPRP | 1.57
16 | RRIRNRPPRLPRPRPRPNAWPRP | 0.000665
17 | RRIRLRPPRLPRPRPRPGIWPRP | 0.355
18 | RRIRCRPPRLPRPRPRPDFIPRP | -0.383
19 | RRIRMRPPRLPRPRPRPKYDPRP | 0.114
20 | RRIRKRPPRLPRPRPRPYFMPRP | -0.501

Row | Sequence | shrunken log2 fold change
21 | RRIRHRPPRLPRPRPRPALTPRP | 0.0729
22 | RRIRGRPPRLPRPRPRPWTDPRP | -0.211
23 | RRIRTRPPRLPRPRPRPYPLPRP | 0.0692
24 | RRIRLRPPRLPRPRPRPRAHPRP | 0.244
25 | RRIRHRPPRLPRPRPRPASPPRP | 0.158
26 | RRIRGRPPRLPRPRPRPKFQPRP | 0.528
27 | RRIRLRPPRLPRPRPRPPKIPRP | 0.0251
28 | RRIRKRPPRLPRPRPRPAEYPRP | 0.345
29 | RRIRARPPRLPRPRPRPQACPRP | 0.0559
30 | RRIRPRPPRLPRPRPRPFCWPRP | 0.447
31 | RRIRCRPPRLPRPRPRPVVMPRP | -0.138
32 | RRIRIRPPRLPRPRPRPENRPRP | -0.176
33 | RRIRYRPPRLPRPRPRPENMPRP | -0.134
34 | RRIRPRPPRLPRPRPRPHGHPRP | 0.0412
35 | RRIRGRPPRLPRPRPRPTEGPRP | 0.795
36 | RRIRKRPPRLPRPRPRPGIWPRP | 0.362
37 | RRIRHRPPRLPRPRPRPDYAPRP | -0.171
38 | RRIRKRPPRLPRPRPRPLQFPRP | -0.076
39 | RRIRQRPPRLPRPRPRPSAHPRP | -0.075
40 | RRIRARPPRLPRPRPRPRLWPRP | 0.724

Row | Sequence | shrunken log2 fold change
41 | RRIRYRPPRLPRPRPRPSFGPRP | -0.522
42 | RRIRNRPPRLPRPRPRPKCNPRP | -0.819
43 | RRIRSRPPRLPRPRPRPTEPPRP | 0.161
44 | RRIRERPPRLPRPRPRPTEFPRP | 0.000688
45 | RRIRCRPPRLPRPRPRPTLRPRP | 0.15
46 | RRIRNRPPRLPRPRPRPKYSPRP | -0.379
47 | RRIRARPPRLPRPRPRPEDNPRP | 0.132
48 | RRIRVRPPRLPRPRPRPDDGPRP | 0.0292
49 | RRIRGRPPRLPRPRPRPPACPRP | 1.36
50 | RRIRMRPPRLPRPRPRPQFEPRP | 0.046
51 | RRIRWRPPRLPRPRPRPTDIPRP | -0.151
52 | RRIRSRPPRLPRPRPRPQQAPRP | 0.0031
53 | RRIRDRPPRLPRPRPRPIKEPRP | -0.015
54 | RRIRFRPPRLPRPRPRPGNYPRP | -0.401
55 | RRIRWRPPRLPRPRPRPLLEPRP | 0.216
56 | RRIRGRPPRLPRPRPRPSQLPRP | 0.461
57 | RRIRIRPPRLPRPRPRPMAWPRP | 0.0272
58 | RRIRRRPPRLPRPRPRPSFTPRP | 0.0475
59 | RRIRFRPPRLPRPRPRPHMDPRP | -1.29
60 | RRIRKRPPRLPRPRPRPVPWPRP | 0.572

Source: the supplement of paper PMC9112550, “Optimization of the antimicrobial peptide Bac7 by deep mutational scanning” (BMC Biology, 2022)
